Measurements as given in patent publication US20240327502A1 (Merck Sharp & Dohme, published 2024).

B1: M3A12 (antibody, V domains shown)
VH: QVQLQESGPQLVKPSQTLSLTCTVSGDSISSSDYCWSWIRQSPGKGLEWIGHSVYSGDTQYNPSLKSRLSISVDTSKNQFSLRLRSVTAADTAVYYCARGNDFWSGSFDYWGQGALVIVSS
VL: DIQMTQSPSSLSASVGDRVTITCRASQSIGTYLNWYQQKPGKAPKVLIYAASSLQSGVPSRFSGRGSGTDFTLTVSSLQPEDFASYYCQQSYTKPYTFGQGTKLEIK
notes: IgG
B2: M2E07 (antibody, V domains shown)
VH: EVQLVESGGGLVQTGGSLRLACAASGFTFSSYAMSWVRQAPGKGLEWVSTITESGDDAYYADSVKGRLTISRDNSKNTLFLHLNGLRSEDTARYYCAKDMGLYKSSWYGNFFYYYYMDVWGEGTTVTVSS
VL: QSALTQPASVSGSPGQSITISCTGSSSNIGSFDLISWYQQHPGKAPKFIIYEGDKRPSGVSYRFSGSKSGSTASLTISGLQAEDEAYYYCCSYARSRTLVFGGGTKVTVL
notes: IgG
B3: M3A03 (antibody, V domains shown)
VH: QVQLVQSGAEVKKPGASVKVSCKASAYTFTSYGITWVRQAPGQGLEWMGWISAYRGNTKYAQKLQGRVTMTTDTSTSTASMELRSLRSDDTAVYYCARTSYYDSSYYPIDYWGQGTLVTVSS
VL: SYVLTQPPSVSVAPGQTARITCGGNNIGSKSVQWYQQKPGQAPVLVVYDDSDRPSGIPERFSGSNSGNTATLTISRVEAGDEADYYCQVWDSSGDRVVFGGGTKLTVL
notes: IgG
B4: M1D2 (antibody, V domains shown)
VH: QVQLQESGPGLVKPSGTLSLTCTVSGGSVNSDHWWTWVRQSPETGLEWIGELNHIGTFNYNPSFKSRATISIDTSKNQFSLTLTSVAAADTAVYYCARRPPPLPEYFYYYFMDVWGNGTTVTVSS
VL: DIQMTQSPSSLSASVGDRVTITCRTSQSIRGHINWYQQKPGKGPKLLIYGASSLQSGVPSRFSGSGSGTDFTLTISSLQAEDFATYYCQQSYSNPYSFGRGTKLEIKR
B5: M1C7s (antibody, V domains shown)
VH: QVQLVQSGPEVRKPGSSVRVSCKASGGTFTRLTITWVRQAPGQGLEWMGRIIPAVDITNYAPKFQGRVTITADKSTGAVYMDLISLTSDDTAIYFCATVLDWSNALDIWGQGTMVTVSS
VL: DIVMTQTPLSLSVTPGQPASISCKSSESLLNSDGKTYLFWYLQKPGQSPQVLIYDLSSRFSGVPERFSGSGSGTDFTLKISRVEPEDVGIYYCMQGLHLPWTFGRGTRLEIKR
B6: M3E09 (antibody, V domains shown)
VH: EVQLVESGGGVVRPGGSLRLSCAASGFRFDDYAMNWVRQAPGKGLEWVSGINWIGGTTKYADSVKGRFTISRDNTKNSLYLQMNSLRAEDTALYYCARGVGYYYYYMDVWGRGTTVTVSS
VL: EIVLTQSPGTLSLSPGERATLSCRATQSVSSNYLAWYQQKPGQAPRLLIYDASSRAIGIPDRFSGSGSGTDFTLTISRLESEDFAVYYCQQYGSSPETFGQGTKVEIK
notes: IgG
B7: M3B04 (antibody, V domains shown)
VH: QVQLQESGPGLVKPSETVSLTCTVSGGSISSNNWWSWVRQSPGKGLEWIGEIYHSGSTNFNPSLKSRVTISVDKSKNHFSLKLGSLTAADTAVYYCARRPNDYGDYSYYYYYYMDVWGKGTTVTVSS
VL: EIVLTQSPATLSLSPGESATLSCRASQSINRNLAWYQQKPGQAPRLLIYDASNRATGIPARFSGSGSGTDFTLTISSLEPEDFAVYYCQQRSHWVTFGQGTRLEIK
notes: IgG
B8: M2D02 (antibody, V domains shown)
VH: QVQLVQSGAEVKKPGSSVKVSCKASGGTLTRYTISWVRQAPGQGLEWMGRIIPFLDIANYAPRFQGRVTMTADKSTSTAYMELSSLTSQDTAIYYCARDHSGNYFDLWGQGTLVTVSS
VL: EIVMTQSPATLSVSPGERATLSCRASQSVTSNLAWYQRKPGQAPRLLIYGASTGATDIPGRFSGSGSGTEFTLTISGLQSEDFAVYYCQQYDHWPRTFGQGTKVEIK
notes: IgG
B9: M2B04 (antibody, V domains shown)
VH: QVQLVQSGPEVKKPGASVKVSCKASGYSITTYGIDWVRQAPGQGLEWIGWSSAHTGNTNYAEKFQGRVTMTTDTSTYTTYMELRSLKSDDTAVYYCAMGAYTSSRNWFDPWGQGTLVIVSS
VL: EIVLTQSPATLSLSPGERATLSCRASQNINNFLAWYQQKAGQAPRLLIYDASNRATGIPGRFSGSGSGTDFTLTISSLEPEDFAVYYCQQRANWPLTFGGGTKVEVK
notes: IgG
B10: M3D04 (antibody, V domains shown)
VH: EVQLVESGGDLVEPGGSLRLSCAASGFTFESAWMSWVRQAPGKGLEWVGRIKSKLDHGTTDYAAPVKGRFTLSRDDSKNTLFLQMNNLKTEDTGVYYCATDRSDVRFLEWLGNYQFGMDVWGQGTTVAVSS
VL: EIVLTQSPGTLSLSPGERATLSCRASHSVSSSYLAWYQQKPGQAPRLLIFGASSRATGIPDRFSGSGSGTDFTLTISRLEPEDFAVYYCQQYLTSPPGWTFGQGTKVEIK
B11: M3D03 (antibody, V domains shown)
VH: QVQLVQSGAEVKKPGASVKVSCKASGYTFTSYGISWVRQAPGQGLEWMGWISAYNGNTNYAQKLQGRVTMTTDTSTSTAYMELRSLRSDDTAVYYCARDAPFGRDDGYGMDVWGQGTTVTVSS
VL: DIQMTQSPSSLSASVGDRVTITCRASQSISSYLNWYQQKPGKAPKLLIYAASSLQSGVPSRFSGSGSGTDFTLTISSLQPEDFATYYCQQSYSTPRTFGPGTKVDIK
notes: IgG
B12: M1A08 (antibody, V domains shown)
VH: QVQLVQSGAEVKKPGASVKVSCKASGVTLTDYYFHWIRQAPGQALEWMGRINPARGGTHYAEKFEDRVTMTTDTSTNTVYMDLSSLRSDDTAVYYCARSGSTHNIYSGFYAFDHWGQGTLVTVSS
VL: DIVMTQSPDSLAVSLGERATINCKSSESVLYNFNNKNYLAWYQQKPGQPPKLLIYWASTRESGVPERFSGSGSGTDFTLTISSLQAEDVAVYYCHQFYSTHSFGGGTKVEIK
B13: M3B12 (antibody, V domains shown)
VH: QVQLVESGGGVVQPGGSLRLSCAASGFTFSSYGMHWVRQAPGKGLEWVAFIRYDGSNKYYADSVKGRFTISRDNSKNTLYLQMNSLRAEDTAVYYCAKDSGSYYYYYYMDVWGKGTTVTVSS
VL: not shown
notes: IgG
B14: M4B11 (antibody, V domains shown)
VH: QVQLVQSGTEVQTPGASVKVSCKTSGYIFTGYFMHWVRQAPGQGFEWMGWVNPYSGATTYAQKFQGRVTMTRDTSISTVYMELSRLTSDDTAIYYCAKDTSNSGPDLLEHWGQGTLVIVSS
VL: EIVLTQSPATLSLSPGERATLSCRASQSISNFLVWYQRKPGQAPRLLIFDVSKRATGIPTRFSGSGSGTDFTLTISSLEPEDFAVYYCQQRSNWPPGYTFGQGTKLEIK

Columns and labels:
[1] = molecular target: T1, Unprocessed hMPV PreF trimer (human metapneumovirus, strain B2); assay: BLI, mAb on anti-human Fc sensor
T1 construct: also called Unprocessed hMPV WT PreF trimer; unprocessed hMPV PreF trimeric antigen

hMPV PostF trimer = molecular target: T2, hMPV PostF trimer (human metapneumovirus, strain B2); assay: BLI, mAb on anti-human Fc sensor
T2 construct: also called MPV PostF (dPFv1)

[2] = molecular target: T3, Processed stabilized hMPV PreF trimer (115BV) (human metapneumovirus, strain B2); assay: BLI, mAb on anti-human Fc sensor
T3 construct: also called Processed hMPV PreF trimer; processed PreF

[3] = molecular target: T3, Processed stabilized hMPV PreF trimer …; assay: BLI, ratio to unprocessed PreF trimer
[4] = molecular target: F protein of hMPV A virus (human metapneumovirus subtype A); assay: cell-based or functional assay
[5] = molecular target: F protein of hMPV B virus (human metapneumovirus subtype B); assay: cell-based or functional assay

Binder	Octet binding response [1] [nm]	Octet binding response (hMPV PostF trimer) [nm]	Octet binding response [2] [nm]	processed/unprocessed PreF trimer binding ratio [3]	PRNT IC50 [4] [µg/mL]	PRNT IC50 [5] [µg/mL]
B1	0.31	0.0469	0.0766	0.25	–	–
B2	0.216	0.0137	0.0476	0.22	–	–
B3	0.181	0.568	0.0409	0.23	–	–
B4	–	–	–	–	0.0117	0.0124
B5	–	–	–	–	0.015	0.0092
B6	0.226	-0.0506	0.0948	0.42	–	–
B7	0.177	0.446	0.0297	0.17	–	–
B8	0.216	0.541	0.0468	0.22	–	–
B9	0.328	0.0152	0.125	0.38	–	–
B10	–	–	–	–	0.2	0.327
B11	0.242	-0.054	0.0286	0.12	–	–
B12	–	–	–	–	2.27	0.72
B13	0.157	0.417	0.0102	0.07	–	–
B14	–	–	–	–	0.652	0.238
